Patent EP0808367B1 (MILLENNIUM PHARMACEUTICALS, INC., dated 2007)
One block for each molecule: values may come before it.

Experiments:
human α4β7 integrin [1] = molecular target: T1, human α4β7 integrin (human, UniProt P13612 34-1032; P26010 20-798); experiment: RPMI 8866 adhesion to chimera on protein A plate; supernatant neat; preincubated with blocking anti-human MAdCAM MAb 10G3 (+); conditions: scale: raw fluorescence
T1 construct: whole, on cells; also called α4β7 on RPMI 8866 cells; α4β7 on HuT 78 cells

human α4β7 integrin [2] = molecular target: T1, human α4β7 integrin; experiment: RPMI 8866 adhesion to chimera on protein A plate; supernatant 1:32; preincubated with control anti-VCAM-1 MAb 2G7 (-); conditions: scale: raw fluorescence
human α4β7 integrin [3] = molecular target: T1, human α4β7 integrin; experiment: RPMI 8866 adhesion to chimera on protein A plate; supernatant 1:8; preincubated with control anti-VCAM-1 MAb 2G7 (-); conditions: scale: raw fluorescence
human α4β7 integrin [4] = molecular target: T1, human α4β7 integrin; experiment: RPMI 8866 adhesion to chimera on protein A plate; supernatant 1:4; preincubated with control anti-VCAM-1 MAb 2G7 (-); conditions: scale: raw fluorescence
human α4β7 integrin [5] = molecular target: T1, human α4β7 integrin; experiment: RPMI 8866 adhesion to chimera on protein A plate; supernatant 1:8; preincubated with blocking anti-human MAdCAM MAb 10G3 (+); conditions: scale: raw fluorescence
human α4β7 integrin [6] = molecular target: T1, human α4β7 integrin; experiment: RPMI 8866 adhesion to chimera on protein A plate; supernatant 1:4; preincubated with blocking anti-human MAdCAM MAb 10G3 (+); conditions: scale: raw fluorescence
human α4β7 integrin [7] = molecular target: T1, human α4β7 integrin; experiment: RPMI 8866 adhesion to chimera on protein A plate; supernatant 1:16; preincubated with control anti-VCAM-1 MAb 2G7 (-); conditions: scale: raw fluorescence
human α4β7 integrin [8] = molecular target: T1, human α4β7 integrin; experiment: RPMI 8866 adhesion to chimera on protein A plate; supernatant 1:16; preincubated with blocking anti-human MAdCAM MAb 10G3 (+); conditions: scale: raw fluorescence
human α4β7 integrin [9] = molecular target: T1, human α4β7 integrin; experiment: RPMI 8866 adhesion to chimera on protein A plate; supernatant neat; preincubated with control anti-VCAM-1 MAb 2G7 (-); conditions: scale: raw fluorescence
human α4β7 integrin [10] = molecular target: T1, human α4β7 integrin; experiment: RPMI 8866 adhesion to chimera on protein A plate; supernatant 1:2; preincubated with blocking anti-human MAdCAM MAb 10G3 (+); conditions: scale: raw fluorescence
human α4β7 integrin [11] = molecular target: T1, human α4β7 integrin; experiment: RPMI 8866 adhesion to chimera on protein A plate; supernatant 1:32; preincubated with blocking anti-human MAdCAM MAb 10G3 (+); conditions: scale: raw fluorescence
human α4β7 integrin [12] = molecular target: T1, human α4β7 integrin; experiment: RPMI 8866 adhesion to chimera on protein A plate; supernatant 1:2; preincubated with control anti-VCAM-1 MAb 2G7 (-); conditions: scale: raw fluorescence
human α4β7 integrin [13] = molecular target: T1, human α4β7 integrin; experiment: RPMI 8866 adhesion to chimera on protein A plate; chimera 1:2; preincubated with blocking anti-human MAdCAM MAb 10G3 (+); conditions: scale: raw fluorescence
human α4β7 integrin [14] = molecular target: T1, human α4β7 integrin; experiment: RPMI 8866 adhesion to chimera on protein A plate; chimera 1:4; preincubated with control anti-VCAM-1 MAb 2G7 (-); conditions: scale: raw fluorescence
human α4β7 integrin [15] = molecular target: T1, human α4β7 integrin; experiment: RPMI 8866 adhesion to chimera on protein A plate; chimera 1:16; preincubated with control anti-VCAM-1 MAb 2G7 (-); conditions: scale: raw fluorescence
human α4β7 integrin [16] = molecular target: T1, human α4β7 integrin; experiment: RPMI 8866 adhesion to chimera on protein A plate; chimera 1:4; preincubated with blocking anti-human MAdCAM MAb 10G3 (+); conditions: scale: raw fluorescence
human α4β7 integrin [17] = molecular target: T1, human α4β7 integrin; experiment: RPMI 8866 adhesion to chimera on protein A plate; chimera 1:32; preincubated with blocking anti-human MAdCAM MAb 10G3 (+); conditions: scale: raw fluorescence
human α4β7 integrin [18] = molecular target: T1, human α4β7 integrin; experiment: RPMI 8866 adhesion to chimera on protein A plate; chimera 1:16; preincubated with blocking anti-human MAdCAM MAb 10G3 (+); conditions: scale: raw fluorescence
human α4β7 integrin [19] = molecular target: T1, human α4β7 integrin; experiment: RPMI 8866 adhesion to chimera on protein A plate; chimera 1:32; preincubated with control anti-VCAM-1 MAb 2G7 (-); conditions: scale: raw fluorescence
human α4β7 integrin [20] = molecular target: T1, human α4β7 integrin; experiment: RPMI 8866 adhesion to chimera on protein A plate; chimera neat; preincubated with control anti-VCAM-1 MAb 2G7 (-); conditions: scale: raw fluorescence
human α4β7 integrin [21] = molecular target: T1, human α4β7 integrin; experiment: RPMI 8866 adhesion to chimera on protein A plate; chimera 1:8; preincubated with blocking anti-human MAdCAM MAb 10G3 (+); conditions: scale: raw fluorescence
human α4β7 integrin [22] = molecular target: T1, human α4β7 integrin; experiment: RPMI 8866 adhesion to chimera on protein A plate; chimera neat; preincubated with blocking anti-human MAdCAM MAb 10G3 (+); conditions: scale: raw fluorescence
human α4β7 integrin [23] = molecular target: T1, human α4β7 integrin; experiment: RPMI 8866 adhesion to chimera on protein A plate; chimera 1:8; preincubated with control anti-VCAM-1 MAb 2G7 (-); conditions: scale: raw fluorescence
human α4β7 integrin [24] = molecular target: T1, human α4β7 integrin; experiment: RPMI 8866 adhesion to chimera on protein A plate; chimera 1:2; preincubated with control anti-VCAM-1 MAb 2G7 (-); conditions: scale: raw fluorescence
human α4β1 integrin = molecular target: T2, human α4β1 integrin (human, UniProt P13612 34-1032; P05556 21-798); experiment: Figure 4B: Jurkat adhesion to CHO/P transfectants
T2 construct: whole, on cells; Carried by Jurkat and Ramos cells, which express α4β1 and not α4β7; also called α4β1 on Jurkat cells; α4β1 on Ramos cells

human α4β7 integrin [25] = molecular target: T1, human α4β7 integrin; experiment: cell adhesion assay, CHO/P transfectants
human α4β7 integrin [26] = molecular target: T1, human α4β7 integrin; experiment: RPMI 8866 adhesion to CHO/P transfectants, 4°C

T1 sequence (P13612 34-1032, chain 1 of 2): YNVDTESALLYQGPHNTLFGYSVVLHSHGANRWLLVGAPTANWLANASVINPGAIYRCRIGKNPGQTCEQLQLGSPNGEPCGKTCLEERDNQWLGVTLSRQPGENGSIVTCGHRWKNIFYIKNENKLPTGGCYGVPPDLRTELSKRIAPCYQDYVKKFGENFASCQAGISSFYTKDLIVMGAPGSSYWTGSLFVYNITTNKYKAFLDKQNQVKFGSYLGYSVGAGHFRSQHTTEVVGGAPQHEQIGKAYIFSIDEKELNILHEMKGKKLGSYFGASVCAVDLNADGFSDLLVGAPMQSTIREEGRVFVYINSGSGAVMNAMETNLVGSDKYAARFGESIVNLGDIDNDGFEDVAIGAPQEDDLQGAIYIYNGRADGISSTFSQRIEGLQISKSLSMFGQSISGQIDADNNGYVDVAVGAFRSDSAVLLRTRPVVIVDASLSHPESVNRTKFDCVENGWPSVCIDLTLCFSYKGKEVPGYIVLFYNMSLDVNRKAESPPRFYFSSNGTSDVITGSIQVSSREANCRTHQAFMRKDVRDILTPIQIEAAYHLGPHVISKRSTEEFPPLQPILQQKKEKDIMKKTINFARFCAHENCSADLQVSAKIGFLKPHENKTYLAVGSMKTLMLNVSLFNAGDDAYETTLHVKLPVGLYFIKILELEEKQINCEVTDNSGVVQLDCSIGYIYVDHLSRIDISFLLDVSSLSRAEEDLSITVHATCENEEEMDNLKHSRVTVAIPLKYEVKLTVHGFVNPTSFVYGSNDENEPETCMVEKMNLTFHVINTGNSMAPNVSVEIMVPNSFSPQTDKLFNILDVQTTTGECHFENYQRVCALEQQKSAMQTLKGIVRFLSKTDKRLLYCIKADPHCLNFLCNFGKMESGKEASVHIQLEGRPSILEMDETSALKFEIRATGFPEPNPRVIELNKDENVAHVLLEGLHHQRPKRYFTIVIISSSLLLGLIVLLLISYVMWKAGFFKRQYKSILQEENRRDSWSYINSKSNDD
T1 sequence (P26010 20-798, chain 2 of 2): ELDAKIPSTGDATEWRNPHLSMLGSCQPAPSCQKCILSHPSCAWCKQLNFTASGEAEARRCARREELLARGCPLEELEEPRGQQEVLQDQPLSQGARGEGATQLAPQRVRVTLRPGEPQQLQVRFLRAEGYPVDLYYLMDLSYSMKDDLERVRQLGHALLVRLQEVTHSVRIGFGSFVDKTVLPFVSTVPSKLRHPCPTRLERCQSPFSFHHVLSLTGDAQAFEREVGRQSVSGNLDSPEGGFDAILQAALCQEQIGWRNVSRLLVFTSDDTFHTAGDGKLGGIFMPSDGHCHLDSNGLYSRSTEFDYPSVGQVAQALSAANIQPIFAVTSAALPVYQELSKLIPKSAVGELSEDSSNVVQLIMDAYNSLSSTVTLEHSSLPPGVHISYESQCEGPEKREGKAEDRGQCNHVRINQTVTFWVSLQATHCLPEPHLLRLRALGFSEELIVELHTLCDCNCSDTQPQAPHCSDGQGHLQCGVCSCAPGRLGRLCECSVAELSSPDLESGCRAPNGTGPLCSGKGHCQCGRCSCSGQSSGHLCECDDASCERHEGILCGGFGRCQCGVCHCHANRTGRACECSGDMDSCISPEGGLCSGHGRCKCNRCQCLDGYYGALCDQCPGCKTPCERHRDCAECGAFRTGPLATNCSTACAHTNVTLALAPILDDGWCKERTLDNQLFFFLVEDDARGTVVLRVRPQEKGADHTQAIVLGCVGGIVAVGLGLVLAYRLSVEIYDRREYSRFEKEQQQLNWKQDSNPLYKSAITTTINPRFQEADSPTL
T2 sequence (P13612 34-1032, chain 1 of 2): as the sequence (P13612 34-1032, chain 1 of 2) above
T2 sequence (P05556 21-798, chain 2 of 2): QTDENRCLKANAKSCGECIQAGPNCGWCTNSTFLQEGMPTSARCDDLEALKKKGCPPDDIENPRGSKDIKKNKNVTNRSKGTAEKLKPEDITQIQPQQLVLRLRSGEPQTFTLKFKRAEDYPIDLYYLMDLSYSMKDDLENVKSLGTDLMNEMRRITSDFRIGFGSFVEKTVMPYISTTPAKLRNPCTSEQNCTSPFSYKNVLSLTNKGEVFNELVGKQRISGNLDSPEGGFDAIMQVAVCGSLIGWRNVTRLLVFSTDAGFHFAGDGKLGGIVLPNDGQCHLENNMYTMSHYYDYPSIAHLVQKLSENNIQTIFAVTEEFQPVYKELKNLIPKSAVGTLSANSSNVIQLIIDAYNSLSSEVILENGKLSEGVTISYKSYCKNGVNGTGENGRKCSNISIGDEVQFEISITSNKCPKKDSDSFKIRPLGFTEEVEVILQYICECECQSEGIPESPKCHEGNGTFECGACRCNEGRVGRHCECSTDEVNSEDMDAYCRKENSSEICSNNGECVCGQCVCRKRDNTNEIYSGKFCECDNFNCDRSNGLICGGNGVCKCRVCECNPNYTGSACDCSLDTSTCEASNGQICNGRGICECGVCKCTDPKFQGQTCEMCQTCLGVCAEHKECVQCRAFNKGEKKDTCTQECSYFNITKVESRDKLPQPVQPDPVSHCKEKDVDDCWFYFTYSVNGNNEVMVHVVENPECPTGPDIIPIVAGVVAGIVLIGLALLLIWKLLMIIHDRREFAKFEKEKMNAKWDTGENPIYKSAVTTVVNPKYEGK

fluorescence of bound RPMI 8866 cells (human α4β7 integrin [1]): 7350
fluorescence of bound RPMI 8866 cells (human α4β7 integrin [2]): 2660
fluorescence of bound RPMI 8866 cells (human α4β7 integrin [3]): 16300
fluorescence of bound RPMI 8866 cells (human α4β7 integrin [4]): 46900
fluorescence of bound RPMI 8866 cells (human α4β7 integrin [5]): 4510
fluorescence of bound RPMI 8866 cells (human α4β7 integrin [6]): 6020
fluorescence of bound RPMI 8866 cells (human α4β7 integrin [7]): 5470
fluorescence of bound RPMI 8866 cells (human α4β7 integrin [8]): 6550
fluorescence of bound RPMI 8866 cells (human α4β7 integrin [9]): 196000
fluorescence of bound RPMI 8866 cells (human α4β7 integrin [10]): 6790
fluorescence of bound RPMI 8866 cells (human α4β7 integrin [11]): 5120
fluorescence of bound RPMI 8866 cells (human α4β7 integrin [12]): 30800
Molecule: human MAdCAM-Ig chimera in the supernatant of a cloned NSO line, Sample D (Fc fusion)

fluorescence of bound RPMI 8866 cells (human α4β7 integrin [1]): 4570
fluorescence of bound RPMI 8866 cells (human α4β7 integrin [2]): 1930
fluorescence of bound RPMI 8866 cells (human α4β7 integrin [3]): 9570
fluorescence of bound RPMI 8866 cells (human α4β7 integrin [4]): 35500
fluorescence of bound RPMI 8866 cells (human α4β7 integrin [5]): 3490
fluorescence of bound RPMI 8866 cells (human α4β7 integrin [6]): 3920
fluorescence of bound RPMI 8866 cells (human α4β7 integrin [7]): 21800
fluorescence of bound RPMI 8866 cells (human α4β7 integrin [8]): 2440
fluorescence of bound RPMI 8866 cells (human α4β7 integrin [9]): 196000
fluorescence of bound RPMI 8866 cells (human α4β7 integrin [10]): 4090
fluorescence of bound RPMI 8866 cells (human α4β7 integrin [11]): 2570
fluorescence of bound RPMI 8866 cells (human α4β7 integrin [12]): 196000
Molecule: human MAdCAM-Ig chimera in the supernatant of a cloned NSO line, Sample C (Fc fusion)

fluorescence of bound RPMI 8866 cells (human α4β7 integrin [1]): 6530
fluorescence of bound RPMI 8866 cells (human α4β7 integrin [2]): 2930
fluorescence of bound RPMI 8866 cells (human α4β7 integrin [3]): 196000
fluorescence of bound RPMI 8866 cells (human α4β7 integrin [4]): 196000
fluorescence of bound RPMI 8866 cells (human α4β7 integrin [5]): 2980
fluorescence of bound RPMI 8866 cells (human α4β7 integrin [6]): 3270
fluorescence of bound RPMI 8866 cells (human α4β7 integrin [7]): 52100
fluorescence of bound RPMI 8866 cells (human α4β7 integrin [8]): 1650
fluorescence of bound RPMI 8866 cells (human α4β7 integrin [9]): 196000
fluorescence of bound RPMI 8866 cells (human α4β7 integrin [10]): 3630
fluorescence of bound RPMI 8866 cells (human α4β7 integrin [11]): 1520
fluorescence of bound RPMI 8866 cells (human α4β7 integrin [12]): 196000
Molecule: human MAdCAM-Ig chimera in the supernatant of a cloned NSO line, Sample B (Fc fusion)

fluorescence of bound RPMI 8866 cells (human α4β7 integrin [13]): 3090
fluorescence of bound RPMI 8866 cells (human α4β7 integrin [14]): 196000
fluorescence of bound RPMI 8866 cells (human α4β7 integrin [15]): 4250
fluorescence of bound RPMI 8866 cells (human α4β7 integrin [16]): 1750
fluorescence of bound RPMI 8866 cells (human α4β7 integrin [17]): 564
fluorescence of bound RPMI 8866 cells (human α4β7 integrin [18]): 482
fluorescence of bound RPMI 8866 cells (human α4β7 integrin [19]): 3560
fluorescence of bound RPMI 8866 cells (human α4β7 integrin [20]): 196000
fluorescence of bound RPMI 8866 cells (human α4β7 integrin [21]): 2200
fluorescence of bound RPMI 8866 cells (human α4β7 integrin [22]): 3860
fluorescence of bound RPMI 8866 cells (human α4β7 integrin [23]): 18600
fluorescence of bound RPMI 8866 cells (human α4β7 integrin [24]): 196000
Molecule: human MAdCAM-Ig chimera, construct HuMAdIg21 (entire extracellular domain of human MAdCAM-1 fused to Fc-mutated human IgG1 constant region) (from UniProt P01857 1-330) (Fc fusion)

binding result (human α4β1 integrin): binds
binding result (human α4β7 integrin [25]): no binding
B1: seven domain human VCAM-1 (receptor, UniProt P19320 25-739, looked up)
chain: FKIETTPESRYLAQIGDSVSLTCSTTGCESPFFSWRTQIDSPLNGKVTNEGTTSTLTMNPVSFGNEHSYLCTATCESRKLEKGIQVEIYSFPKDPEIHLSGPLEAGKPITVKCSVADVYPFDRLEIDLLKGDHLMKSQEFLEDADRKSLETKSLEVTFTPVIEDIGKVLVCRAKLHIDEMDSVPTVRQAVKELQVYISPKNTVISVNPSTKLQEGGSVTMTCSSEGLPAPEIFWSKKLDNGNLQHLSGNATLTLIAMRMEDSGIYVCEGVNLIGKNRKEVELIVQEKPFTVEISPGPRIAAQIGDSVMLTCSVMGCESPSFSWRTQIDSPLSGKVRSEGTNSTLTLSPVSFENEHSYLCTVTCGHKKLEKGIQVELYSFPRDPEIEMSGGLVNGSSVTVSCKVPSVYPLDRLEIELLKGETILENIEFLEDTDMKSLENKSLEMTFIPTIEDTGKALVCQAKLHIDDMEFEPKQRQSTQTLYVNVAPRDTTVLVSPSSILEEGSSVNMTCLSQGFPAPKILWSRQLPNGELQPLSENATLTLISTKMEDSGVYLCEGINQAGRSRKEVELIIQVTPKDIKLTAFPSESVKEGDTVIISCTCGNVPETWIILKKKAETGDTVLKSIDGAYTIRKAQLKDAGVYECESKNKVGSQLRSLTLDVQGRENNKDYFSPELLVLYFASSLIIPAIGMIIYFARKANMKGSYSLVEAQKSKV
notes: whole, on cells; Expressed on transiently transfected CHO/P cells; also called pCD3VCAM

binding result (human α4β1 integrin): no binding
binding result (human α4β7 integrin [26]): binds
B2: murine MAdCAM-1 (receptor, UniProt Q61826 22-405, looked up)
chain: QSFQVNPPESEVAVAMGTSLQITCSMSCDEGVARVHWRGLDTSLGSVQTLPGSSILSVRGMLSDTGTPVCVGSCGSRSFQHSVKILVYAFPDQLVVSPEFLVPGQDQVVSCTAHNIWPADPNSLSFALLLGEQRLEGAQALEPEQEEEIQEAEGTPLFRMTQRWRLPSLGTPAPPALHCQVTMQLPKLVLTHRKEIPVLQSQTSPKPPNTTSAEPYILTSSSTAEAVSTGLNITTLPSAPPYPKLSPRTLSSEGPCRPKIHQDLEAGWELLCEASCGPGVTVRWTLAPGDLATYHKREAGAQAWLSVLPPGPMVEGWFQCRQDPGGEVTNLYVPGQVTPNSSSTVVLWIGSLVLGLLALVFLAYRLWKCYRPGPRPDTSSCTHL
notes: whole, on cells; Expressed on transiently transfected CHO/P cells; also called pCDMAD-7
